From article doi:10.1101/2025.05.26.656162

Target: Sam68 N-terminal region (human, UniProt Q07666 1-96)
Assay: single-molecule nanoaperture optical tweezers

Sam68 N-terminal region, sequence (Q07666 1-96): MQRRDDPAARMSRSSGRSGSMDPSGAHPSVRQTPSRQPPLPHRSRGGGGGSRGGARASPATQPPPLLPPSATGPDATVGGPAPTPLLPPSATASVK

For GGGUGACACACUAGCUAUAGCAUUAAAAGACCGAGCAAGU (ssRNA) [G8.5 RNA], the Kd was ~8 µM.
